Test results reported in patent publication US20220315670A1 (RESEARCH FOUNDATION FOR THE STATE UNIVERSITY OF NEW YORK, published 2022).
Substitutions are numbered along the chain they refer to. Numbers in names are those of the source. One block for each binder: values may come before it.

Legend:
[1] = molecular target: T1, trastuzumab (Herceptin); assay: ELISA screen of colony lysate on coated trastuzumab, 40 h with 1 uM 1HE, high-affinity panning
T1 construct: also called Tmab; not shown: the constant regions

[2] = molecular target: T1, trastuzumab (Herceptin); assay: dissociation ELISA on covalently immobilised trastuzumab
Description: (§1) Individual mutants were expressed and purified using a nickel chromatography resin, as previously described (16). […] The following day, unreacted sites were blocked with 10 mM ethanolamine in a 100 mM sodium bicarbonate buffer pH 9.5 for one hour. Purified mutants were incubated for one hour and subsequently washed three times with wash buffer. Following washing, 0.1% BSA PBS solution was added to the initial timepoint wells. […] At individual time points, the buffer in the time point wells was removed by pipetting, and the wells washed three times with wash buffer and 0.1% BSA PBS added. At the terminal time point, all wells were washed three times with wash buffer, and secondary antibodies added at the dilutions listed above for one hour at room temperature. Following secondary incubation, plates were washed three times with wash buffer and three times with dH₂O. 250 μl of 4 mg/ml PnPP in a 10 mM diethanolamine pH 9.8 buffer was added to each well, and absorbance values read for 10 minutes at 30-second intervals. The change in absorbance per minute for each well was divided by the average change in absorbance per minute for the initial time point wells, and the resulting dissociation curves fit to a monoexponential decay function in GraphPad Prism 7 (GraphPad, San Diego, Calif.). Each time point was run in triplicate for each mutant.

[3] = molecular target: T1, trastuzumab (Herceptin); assay: SPR, trastuzumab immobilized by amine coupling, 10-hour dissociation, 1:1 Langmuir fit
Description: (§2) A mobile phase of 0.05% Tween-20 PBS pH 7.4 was used at a flow rate of 25 μL/minute. […] Association and dissociation rate constants were determined using a 1:1 Langmuir binding model in the biosensor data analysis software Scrubber (BioLogic Software, Canberra, Australia).
(§3) An optimal range was 10 pM to 10 nM.

[4] = molecular target: T1, trastuzumab (Herceptin); assay: inferred from the IC50 of the SKOV3 cell competition assay with 200 pM 125I-trastuzumab
Description: (§4) SKOV3 cells (ATCC, HTB-77) were grown in complete McCoys 5a media to confluency in a T75 flask and dissociated using 50 μM EDTA. […] Cells were incubated at 4° C. for 90 minutes to reach binding equilibrium followed by 4 washes with 1 mL of 1% BSA PBS buffer to remove non-specific radioactivity. Cell-associated radioactivity was assessed through gamma counting.
as §3

[5] = molecular target: T1, trastuzumab (Herceptin); assay: SPR, trastuzumab immobilized by amine coupling, 1HE at 10, 20 and 35 nM, 1:1 Langmuir fit
Description: as §2, §3

[6] = molecular target: T1, trastuzumab (Herceptin); assay: competition on SKOV3 cells, 125I-trastuzumab with increasing 1HE, cell-associated radioactivity
Description: Points represent the mean of triplicate samples with standard deviation error bars.
as §4

[7] = molecular target: T1, trastuzumab (Herceptin); assay: competition on SKOV3 cells, 200 pM 125I-trastuzumab with increasing 1HE, 4 C, 90 minutes, gamma counting
Description: as §4, §3

[8] = molecular target: T1, trastuzumab (Herceptin); assay: dissociation ELISA on covalently immobilised trastuzumab, 1 uM 1HE in the buffer
Description: as §1

[9] = molecular target: T1, trastuzumab (Herceptin); assay: dissociation ELISA on covalently immobilised trastuzumab, 500 nM trastuzumab in the buffer
Description: as §1

[10] = molecular target: T1, trastuzumab (Herceptin); assay: dissociation ELISA, trastuzumab covalently immobilized, 1 uM 1HE in buffer to block rebinding, monoexponential fit
Description: as §1

[11] = molecular target: T1, trastuzumab (Herceptin); assay: ELISA screen of colony lysate on coated trastuzumab, low-affinity panning

B1: 2D7 (VHH)
VHH: EVQLVESGGGLVQAGDSLTLSCAASGRTFSSVAMGWFRQAPGKERKFVANISWNGDSTYYTDSVKGRFTISRDNAKNTVYLQMSSLKPEDTAVYYCAADVRWAGDGHRADYWGQGTQVTVSS
estimated half-life [1]: 43.5 h

B5: 1F3 (VHH)
VHH: B1 VHH with D56Y, A103T
T1/2 [9]: 5.1 h

B8: 1HE mutant 2E10 (L18Q, T103A) (VHH)
VHH: B1 VHH with L18Q
estimated half-life [1]: 35.7 h | estimated binding half-life [10]: 482 h

B10: 1E10 (VHH)
VHH: B1 VHH with D16A, S17G, A103T
notes: also called 1HE mutant 1E10
estimated half-life [11]: 19.3 h

B13: 1C3 (VHH)
VHH: B1 VHH with A97V, A103T
T1/2 [9]: 12.1 h

B14: 1G1 (VHH)
VHH: B1 VHH with N54D, D56G, N74S, A103T
T1/2 [9]: 12.1 h

B15: 1G11 (VHH)
VHH: B1 VHH with G10D, S31G, D56V, A103T
T1/2 [9]: 35.1 h

The next lines start with the values.

T1/2 [2]: 17.4 h | half-life of dissociation [3]: 26.6 h | Kd [4]: ≤ 0.122 nM | Kd [5]: 0.0335 nM | IC50 [6]: 0.129 nM | IC50 [7]: 0.122 nM
B2: 1HE, anti-idiotypic camelid single domain antibody against trastuzumab (VHH)
VHH: B1 VHH with A103T
notes: also called wild-type 1HE; cold-1HE

estimated half-life [1]: 17.7 h
B3: 2E11 (VHH)
VHH: B1 VHH with K87E, A103T
notes: also called 1HE mutant 2E11

T1/2 [8]: 84.1 h
B4: 2C4 (VHH)
VHH: B1 VHH with Q117L
notes: also called 1HE mutant 2C4

estimated half-life [1]: 15.7 h
B6: 2G2 (VHH)
VHH: B1 VHH with A103T, Y111N

T1/2 [8]: 187 h | estimated half-life [1]: 70.8 h
B7: 2A4 (VHH)
VHH: B1 VHH with T58A, A103T
notes: also called 1HE mutant 2A4

T1/2 [8]: 8.8 h | estimated half-life [1]: 29.6 h
B9: 2D11 (VHH)
VHH: B1 VHH with K76R, A103T
notes: also called 1HE mutant 2D11

T1/2 [8]: 55.5 h | estimated half-life [1]: 30.8 h
B11: 2F9 (VHH)
VHH: B1 VHH with A103T, D105E
notes: also called 1HE mutant 2F9

T1/2 [8]: 5.4 h | estimated half-life [1]: 26.9 h
B12: 2H2 (VHH)
VHH: B1 VHH with G9D, T28A, A103T
notes: also called 1HE mutant 2H2
